Data taken from article PMC3359286 (2012).

Biological target: methemoglobin (Homo sapiens, UniProt P69905)
Assay: ELISA

Chain of methemoglobin (P69905 2-142, chain 1 of 2): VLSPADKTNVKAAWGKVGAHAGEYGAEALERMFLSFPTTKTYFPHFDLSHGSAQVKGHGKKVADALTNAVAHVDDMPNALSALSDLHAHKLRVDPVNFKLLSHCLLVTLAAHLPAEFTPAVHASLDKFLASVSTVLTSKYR
Chain of methemoglobin (chain, as listed by the source, chain 2 of 2): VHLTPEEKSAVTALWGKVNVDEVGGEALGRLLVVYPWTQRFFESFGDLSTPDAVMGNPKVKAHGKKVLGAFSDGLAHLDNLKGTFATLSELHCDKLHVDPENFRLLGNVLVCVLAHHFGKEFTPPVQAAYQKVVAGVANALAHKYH

B1: Shr (protein)
chain: QEPLVQSQLVTTVALTQDNRLLVEEIGPYASQSAGKEYYKHIEKIIVDNDVYEKSLEGERTFDINYQGIKINADLIKDGKHELTIVNKKDGDILITFIKKGDKVTFISAQKLGTTDHQDSLKKDVLSDKTVPQNQGTQKVVKSGKNTANLSLITKLSQEDGAILFPEIDRYSDNKQIKALTQQITKVTVNGTVYKDLISDSVKDTNGWVSNMTGLHLGTKAFKDGENTIVISSKGFEDVTITVTKKDGQIHFVSAKQKQHVTAEDRQSTKLDVTTLEKAIKEADAIIAKESNKDAVKDLAEKLQVIKDSYKEIKDSKLLADTHRLLKDTIESYQAGEVSINNLTEGTYTLNFKANKENSEESSMLQGAFDKRAKLVVKADGTMEISMLNTALGQFLIDFSIESKGTYPAAVRKQVGQKDINGSYIRSEFTMPIDDLDKLHKGAVLVSAMGGQESDLNHYDKYTKLDMTFSKTVTKGWSGYQVETDDKEKGVGTERLEKVLVKLGKDLDGDGKLSKTELEQIRGELRLDHYELTDISLLKHAKNITELHLDGNQITEIPKELFSQMKQLRFLNLRSNHLTYLDKDTFKSNAQLRELYLSSNFIHSLEGGLFQSLHHLEQLDLSKNRIGRLCDNPFEGLSRLTSLGFAENSLEEIPEKALEPLTSLNFIDLSQNNLALLPKTIEKLRALSTIVASRNHITRIDNISFKNLPKLSVLDLSTNEISNLPNGIFKQNNQLTKLDFFNNLLTQVEESVFPDVETLNLDVKFNQIKSVSPKVRALIGQHKLTPQKHIAKLEASLDGEKIKYHQAFSLLDLYYWEQKTNSAIDKELVSVEEYQQLLQEKGSDTVSLLNDMQVDWSIVIQLQKKASNGQYVTVDEKLLSNDPKDDLTGEFSLKDPGTYRIRKALITKKFATQKEHIYLTSNDILVAKGPHSHQKDLVENGLRALNQKQLRDGIYYLNASMLKTDLASESMSNKAINHRVTLVVKKGVSYLEVEFRGIKVGKMLGYLGELSYFVDGYQRDLAGKPVGRTKKAEVVSYFTDVTGLPLADRYGKNYPKVLRMKLIEQAKKDGLVPLQVFVPIMDAISKGSGLQTVFMRLDWASLTTEKAKVVKETNNPQENSHLTSTDQLKGPQNRQQEKTPTSPPSAATGIANLTDLLAKKATGQSTQETSKTDDTDKAEKLKQLVRDHQTSIEGKTAKDTKTKKSDKKHRSNQQSNGEESSSRYHLIAGLSSFMIVALGFIIGRKTLFK
modifications: holoShr (heme-bound), ferric hemoglobin (metHb)
For B1, the Kd was 0.05 µM.
